Each molecule was assayed on plasma proteins (assay: Plasma proteins modulated between baseline and day 28 in responders (CR, VGPR, PR; n = 19), Example 6 (Table 13)). Conditions: plasma protein (OLINK NPX); responders (CR, VGPR, PR; n = 19); itacitinib 200 mg or 300 mg QD with corticosteroids; day 28 vs baseline.
Format: in vivo, human
Method in brief: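 Plasma at baseline/screening and day 28 profiled for >1000 proteins by OLINK proximity extension assay, reported as NPX (log2). Steroid-naive and steroid-refractory patients pooled. Paired and unpaired t tests, ANOVA and Pearson correlation applied; significance at P<0.05.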

Molecule	Fold Change, Decreased Expression from Baseline to Day 28	Fold Change, Increased Expression from Baseline to Day 28
CKAP4 (protein, UniProt Q07065 1-602, looked up) Cytoskeleton-associated …: MPSAKQRGSKGGHGAASPSEKGAHPSGGADDVAKKPPPAPQQPPPPPAPHPQQHPQQHPQNQAHGKGGHRGGGGGGGKSSSSSSASAAAAAAAASSSASCSRRLGRALNFLFYLALVAAAAFSGWCVHHVLEEVQQVRRSHQDFSRQREELGQGLQGVEQKVQSLQATFGTFESILRSSQHKQDLTEKAVKQGESEVSRISEVLQKLQNEILKDLSDGIHVVKDARERDFTSLENTVEERLTELTKSINDNIAIFTEVQKRSQKEINDMKAKVASLEESEGNKQDLKALKEAVKEIQTSAKSREWDMEALRSTLQTMESDIYTEVRELVSLKQEQQAFKEAADTERLALQALTEKLLRSEESVSRLPEEIRRLEEELRQLKSDSHGPKEDGGFRHSEAFEALQQKSQGLDSRLQHVEDGVLSMQVASARQTESLESLLSKSQEHEQRLAALQGRLEGLGSSEADQDGLASTVRSLGETQLVLYGDVEELKRSVGELPSTVESLQKVQEQVHTLLSQDQAQAARLPPQDFLDRLSSLDNLKASVSQVEADLKMLRTAVDSLVAYSVKIETNENNLESAKGLLDDLRNDLDRLFVKVEKIHEKV	−1.1904	
CD79B (protein, UniProt P40259 29-229, looked up) B-cell antigen receptor …: ARSEDRYRNPKGSACSRIWQSPRFIARKRGFTVKMHCYMNSASGNVSWLWKQEMDENPQQLKLEKGRMEESQNESLATLTIQGIRFEDNGIYFCQQKCNNTSEVYQGCGTELRVMGFSTLAQLKQRNTLKDGIIMIQTLLIILFIIVPIFLLLDKDDSKAGMEEDHTYEGLDIDQTATYEDIVTLRTGEVKWSVGEHPGQE	−1.2372	
ARG1 (protein, UniProt P05089 1-322, looked up) Arginase-1: MSAKSRTIGIIGAPFSKGQPRGGVEEGPTVLRKAGLLEKLKEQECDVKDYGDLPFADIPNDSPFQIVKNPRSVGKASEQLAGKVAEVKKNGRISLVLGGDHSLAIGSISGHARVHPDLGVIWVDAHTDINTPLTTTSGNLHGQPVSFLLKELKGKIPDVPGFSWVTPCISAKDIVYIGLRDVDPGEHYILKTLGIKYFSMTEVDRLGIGKVMEETLSYLLGRKKRPIHLSFDVDGLDPSFTPATGTPVVGGLTYREGLYITEEIYKTGLLSGLDIMEVNPSLGKTPEEVTRTVNTAVAITLACFGLAREGNHKPIDYLNPPK	−1.3036	
PCDH17 (protein, UniProt O14917 18-1159, looked up) Protocadherin-17: LKNLNYSVPEEQGAGTVIGNIGRDARLQPGLPPAERGGGGRSKSGSYRVLENSAPHLLDVDADSGLLYTKQRIDRESLCRHNAKCQLSLEVFANDKEICMIKVEIQDINDNAPSFSSDQIEMDISENAAPGTRFPLTSAHDPDAGENGLRTYLLTRDDHGLFGLDVKSRGDGTKFPELVIQKALDREQQNHHTLVLTALDGGEPPRSATVQINVKVIDSNDNSPVFEAPSYLVELPENAPLGTVVIDLNATDADEGPNGEVLYSFSSYVPDRVRELFSIDPKTGLIRVKGNLDYEENGMLEIDVQARDLGPNPIPAHCKVTVKLIDRNDNAPSIGFVSVRQGALSEAAPPGTVIALVRVTDRDSGKNGQLQCRVLGGGGTGGGGGLGGPGGSVPFKLEENYDNFYTVVTDRPLDRETQDEYNVTIVARDGGSPPLNSTKSFAIKILDENDNPPRFTKGLYVLQVHENNIPGEYLGSVLAQDPDLGQNGTVSYSILPSHIGDVSIYTYVSVNPTNGAIYALRSFNFEQTKAFEFKVLAKDSGAPAHLESNATVRVTVLDVNDNAPVIVLPTLQNDTAELQVPRNAGLGYLVSTVRALDSDFGESGRLTYEIVDGNDDHLFEIDPSSGEIRTLHPFWEDVTPVVELVVKVTDHGKPTLSAVAKLIIRSVSGSLPEGVPRVNGEQHHWDMSLPLIVTLSTISIILLAAMITIAVKCKRENKEIRTYNCRIAEYSHPQLGGGKGKKKKINKNDIMLVQSEVEERNAMNVMNVVSSPSLATSPMYFDYQTRLPLSSPRSEVMYLKPASNNLTVPQGHAGCHTSFTGQGTNASETPATRMSIIQTDNFPAEPNYMGSRQQFVQSSSTFKDPERASLRDSGHGDSDQADSDQDTNKGSCCDMSVREALKMKTTSTKSQPLEQEPEECVNCTDECRVLGHSDRCWMPQFPAANQAENADYRTNLFVPTVEANVETETYETVNPTGKKTFCTFGKDKREHTILIANVKPYLKAKRALSPLLQEVPSASSSPTKACIEPCTSTKGSLDGCEAKPGALAEASSQYLPTDSQYLSPSKQPRDPPFMASDQMARVFADVHSRASRDSSEMGAVLEQLDHPNRDLGRESVDAEEVVREIDKLLQDCRGNDPVAVRK	−1.232	
FES (protein, UniProt P07332 1-822, looked up) Tyrosine-protein kinase …: MGFSSELCSPQGHGVLQQMQEAELRLLEGMRKWMAQRVKSDREYAGLLHHMSLQDSGGQSRAISPDSPISQSWAEITSQTEGLSRLLRQHAEDLNSGPLSKLSLLIRERQQLRKTYSEQWQQLQQELTKTHSQDIEKLKSQYRALARDSAQAKRKYQEASKDKDRDKAKDKYVRSLWKLFAHHNRYVLGVRAAQLHHQHHHQLLLPGLLRSLQDLHEEMACILKEILQEYLEISSLVQDEVVAIHREMAAAAARIQPEAEYQGFLRQYGSAPDVPPCVTFDESLLEEGEPLEPGELQLNELTVESVQHTLTSVTDELAVATEMVFRRQEMVTQLQQELRNEEENTHPRERVQLLGKRQVLQEALQGLQVALCSQAKLQAQQELLQTKLEHLGPGEPPPVLLLQDDRHSTSSSEQEREGGRTPTLEILKSHISGIFRPKFSLPPPLQLIPEVQKPLHEQLWYHGAIPRAEVAELLVHSGDFLVRESQGKQEYVLSVLWDGLPRHFIIQSLDNLYRLEGEGFPSIPLLIDHLLSTQQPLTKKSGVVLHRAVPKDKWVLNHEDLVLGEQIGRGNFGEVFSGRLRADNTLVAVKSCRETLPPDLKAKFLQEARILKQYSHPNIVRLIGVCTQKQPIYIVMELVQGGDFLTFLRTEGARLRVKTLLQMVGDAAAGMEYLESKCCIHRDLAARNCLVTEKNVLKISDFGMSREEADGVYAASGGLRQVPVKWTAPEALNYGRYSSESDVWSFGILLWETFSLGASPYPNLSNQQTREFVEKGGRLPCPELCPDAVFRLMEQCWAYEPGQRPSFSTIYQELQSIRKRHR	−1.4934	
CLEC10A (protein, UniProt Q8IUN9 1-316, looked up) C-type lectin domain family …: MTRTYENFQYLENKVKVQGFKNGPLPLQSLLQRLCSGPCHLLLSLGLGLLLLVIICVVGFQNSKFQRDLVTLRTDFSNFTSNTVAEIQALTSQGSSLEETIASLKAEVEGFKQERQAGVSELQEHTTQKAHLGHCPHCPSVCVPVHSEMLLRVQQLVQDLKKLTCQVATLNNNASTEGTCCPVNWVEHQDSCYWFSHSGMSWAEAEKYCQLKNAHLVVINSREEQNFVQKYLGSAYTWMGLSDPEGAWKWVDGTDYATGFQNWKPGQPDDWQGHGLGGGEDCAHFHPDGRWNDDVCQRPYHWVCEAGLGQTSQESH	−1.274	
PLIN1 (protein, UniProt O60240 1-522, looked up) Perilipin-1: MAVNKGLTLLDGDLPEQENVLQRVLQLPVVSGTCECFQKTYTSTKEAHPLVASVCNAYEKGVQSASSLAAWSMEPVVRRLSTQFTAANELACRGLDHLEEKIPALQYPPEKIASELKDTISTRLRSARNSISVPIASTSDKVLGAALAGCELAWGVARDTAEFAANTRAGRLASGGADLALGSIEKVVEYLLPPDKEESAPAPGHQQAQKSPKAKPSLLSRVGALTNTLSRYTVQTMARALEQGHTVAMWIPGVVPLSSLAQWGASVAMQAVSRRRSEVRVPWLHSLAAAQEEDHEDQTDTEGEDTEEEEELETEENKFSEVAALPGPRGLLGGVAHTLQKTLQTTISAVTWAPAAVLGMAGRVLHLTPAPAVSSTKGRAMSLSDALKGVTDNVVDTVVHYVPLPRLSLMEPESEFRDIDNPPAEVERREAERRASGAPSAGPEPAPRLAQPRRSLRSAQSPGAPPGPGLEDEVATPAAPRPGFPAVPREKPKRRVSDSFFRPSVMEPILGRTHYSQLRKKS		2.4338
C1QTNF1 (protein, UniProt Q9BXJ1 26-281, looked up) Complement C1q tumor necrosis …: RVPHVQGEQQEWEGTEELPSPPDHAERAEEQHEKYRPSQDQGLPASRCLRCCDPGTSMYPATAVPQINITILKGEKGDRGDRGLQGKYGKTGSAGARGHTGPKGQKGSMGAPGERCKSHYAAFSVGRKKPMHSNHYYQTVIFDTEFVNLYDHFNMFTGKFYCYVPGLYFFSLNVHTWNQKETYLHIMKNEEEVVILFAQVGDRSIMQSQSLMLELREQDQVWVRLYKGERENAIFSEELDTYITFSGYLVKHATEP	−1.2979	
CLM-6 (protein, UniProt Q08708 21-224, looked up) CMRF35-like molecule 6: GYFPLSHPMTVAGPVGGSLSVQCRYEKEHRTLNKFWCRPPQILRCDKIVETKGSAGKRNGRVSIRDSPANLSFTVTLENLTEEDAGTYWCGVDTPWLRDFHDPIVEVEVSVFPAGTTTASSPQSSMGTSGPPTKLPVHTWPSVTRKDSPEPSPHPGSLFSNVRFLLLVLLELPLLLSMLGAVLWVNRPQRSSRSRQNWPKGENQ	−1.1356	
PGLYRP1 (protein, UniProt O75594 22-196, looked up) Peptidoglycan recognition …: QETEDPACCSPIVPRNEWKALASECAQHLSLPLRYVVVSHTAGSSCNTPASCQQQARNVQHYHMKTLGWCDVGYNFLIGEDGLVYEGRGWNFTGAHSGHLWNPMSIGISFMGNYMDRVPTPQAIRAAQGLLACGVAQGALRSNYVLKGHRDVQRTLSPGNQLYHLIQNWPHYRSP	−1.6181	
SPON2 (protein, UniProt Q9BUD6 27-331, looked up) Spondin-2: QPLGGESICSARALAKYSITFTGKWSQTAFPKQYPLFRPPAQWSSLLGAAHSSDYSMWRKNQYVSNGLRDFAERGEAWALMKEIEAAGEALQSVHAVFSAPAVPSGTGQTSAELEVQRRHSLVSFVVRIVPSPDWFVGVDSLDLCDGDRWREQAALDLYPYDAGTDSGFTFSSPNFATIPQDTVTEITSSSPSHPANSFYYPRLKALPPIARVTLVRLRQSPRAFIPPAPVLPSRDNEIVDSASVPETPLDCEVSLWSSWGLCGGHCGRLGTKSRTRYVRVQPANNGSPCPELEEEAECVPDNCV		1.095
TRANCE (protein, UniProt O14788 140-317, looked up) Tumor necrosis factor ligand …: IRAEKAMVDGSWLDLAKRSKLEAQPFAHLTINATDIPSGSHKVSLSSWYHDRGWAKISNMTFSNGKLIVNQDGFYYLYANICFRHHETSGDLATEYLQLMVYVTKTSIKIPSSHTLMKGGSTKYWSGNSEFHFYSINVGGFFKLRSGEEISIEVSNPSLLDPDQDATYFGAFKVRDID	−1.4034	
